Biological target: AP2-μ2 (plasmid-encoded: μ2-HA; μ2-myc in AP2 core and hemicomplex) (UniProt P84092)
Assay: anti-FLAG co-IP, Western blot
Settings: reference: wild type; sites S31,S32

Substance: HPV-16 E7 (from UniProt P03129) S31A/S32A
- binding against the reference: weaker

— publication PMC9765456
